We go through 1 substance from US20240123058A1.

The target in experiment [1] is EBV gB protein ectodomain (24-683 aa) of the substituted M81 strain gB protein, C-terminal 6×His tag (EBV M81 strain) (UniProt P0C762). Kind of experiment: competition ELISA on coated gB: unlabelled primary antibody at 10 µg/mL, then HRP-labelled 3A3 as secondary.
Experiment [2] has the same target. In words: competition ELISA on coated gB: unlabelled primary antibody at 10 µg/mL, then HRP-labelled AMMO5 as secondary.
For experiment [3] the target is unchanged. In words: competition ELISA on coated gB: unlabelled primary antibody at 10 µg/mL, then HRP-labelled 3A5 as secondary.

Turning to mouse monoclonal antibody 72A1, the competition rate in experiment [1] is -1.4%; in experiment [2] it was -9.3%; in experiment [3], 8%.
